Measured values published in the nanobody polyreactivity screen of Harvey et al. (2022).

Assay: yeast display, Sf9 membrane polyspecificity reagent, FACS + sequencing; frameworks hold sequencing errors
In short: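 Nanobodies came from a synthetic yeast display library in Saccharomyces cerevisiae BJ5465, induced with galactose for 36–48 hours and stained for 1 hour at 4 °C with 10% biotinylated, detergent-solubilized Sf9 membrane reagent. Cells were enriched on streptavidin microbeads and then FACS-sorted, with low and high (top ~1%) gates set on anti-HA fluorescence for expression and streptavidin fluorescence for reagent binding. Each polyreactivity label reflects the gate a clone came from. Genes were amplified by colony PCR, sequenced by MiSeq 2 × 250 and filtered by CDR length.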

Sequence | polyreactivity (PSR sort gate)
QVQLVESGGGLVQAGGSLRLSCAASGFIFAYYAMGWYRQAPGKERELVAAITWSGGITYYADSVKGRFTISRDNAKNTVYLQMNSLKPEDTAVYYCNRAWSSHRYYYWGQGTQVTVSS | high polyreactivity
QVQLVESGGGLVQAGGSLRLSCAASGFIFDAYAMGWYRPAPGKEREFVAGISIGGRTNYADSVKGRFTISRDNAKNTVYLQMNSLKPEDSAVYYCAARNYRYYYGSYFRGPITNYEYWGQGTQVTVSS | low polyreactivity
QVQLVESGGGLVQAGGSLRLSCAASGFIFDDNAMGRYRQAPGKERELVAAITSGGGSTYYADSVKGRFTISRDNAKNTVYLQMNSLKPEDNAVYYCNAVPSQHVEFDYWGQGTQVTVSS | low polyreactivity
QVQLVESGGGLVQAGGSLRLSCAASGFIFDDNSMGWYRQAPGTEREFVAAISQGAGSTYYADSVKGRFTISRDTAKNTVNLQMNSLKPEDTAVYYCNNGRPKYWYGYKYDYWGHGTQVTVSS | low polyreactivity
QVQLVESGGGLVQAGGSLRLSCAASGFIFDFYAMGWYRQAPGKERELVADITGGGSTYYADSVKGRFTISRDNAKNTVYLQMNSLKPEDTAVYYCAASYGVYWYSFWYHVAWYDYWGQGTQVTVSS | low polyreactivity
QVQLVESGGGLVQAGGSLRLSCAASGFIFDFYTMGWYRQATGKESELVAAITWSGDSTYYADSVKGRFTISRDNAKNTVYLQMNSLKPEDTAVYYCAADWWGVWYFDYDYWGQGTQVTVSS | low polyreactivity
QVQLVESGGGLVQAGGSLRLSCAASGFIFDGYAMGWYRQAPGKERELVAAIDSGGDRTYYADSVKGRFTISRDNAKYTVYLQMNSLKPEDTAVYYCAADSSDPTGYDYWGQGTQVTVSS | low polyreactivity
QVQLVESGGGLVQAGGSLRLSCAASGFIFDHYAMGWYRQAPGKERELVAAISGSGGSTYYADSVKGRFPISRDNAKNTVYLQMNSLKPEDTAVYYCAARPGSKYAQRGYWGQGTHVTVSS | high polyreactivity
QVQLVESGGGLVQAGGSLRLSCAASGFIFDINAIGWYRQAPGKERELVAAISYSGGSTYYADSVKGRFTISRDNAKNTVYLQMNSLKPEDTAVYYCAADSGPDSDEGDYWGQGTQVTVSS | low polyreactivity
QVQLVESGGGLVQAGGSLRLSCAASGFIFDIYAMGWYRQAPGKERELVASITWDDGSTYYADSVKGRFTISRDNAKNTVYLQMNRLKPVDTAVYYCAADFEAGGYSLDYWGQGTQVTVSS | low polyreactivity
QVQLVESGGGLVQAGGSLRLSCAASGFIFDLYAMGWSRQAPGKERELVAAITYSGGSTYYADSVKGRFTISRDNAKNTVYLQMNSLKPEDTAVYYCAAYYGGRGYWGQGTQVTVSS | low polyreactivity
QVQLVESGGGLVQAGGSLRLSCAASGFIFDPYAMGWYRQAPGKERELVAAISDGGSTNYADSVKGRFTISRDNAKNTVYLQMNSLKPEDTAVYYCAVEYWYVWVTFDYWGQGTQVTVSS | low polyreactivity
QVQLVESGGGLVQAGGSLRLSCAASGFIFDQYAMGWYRQAPGKERELVATITSDGDTYYADSVKGRFTISRDNAKNTVYLHMISLKPEDSAVYYCAVEPGPYTTGYDYWGQGTQVTVSS | low polyreactivity
QVQLVESGGGLVQAGGSLRLSCAASGFIFDRNAMGWYRQAPGKERELVAAISKSGGSTYYADSVKGRFSISRDNAKNTVYLQMNSLKPEDTAVYYCAADRPTIRYNSWGQGTQVTVSS | high polyreactivity
QVQLVESGGGLVQAGGSLRLSCAASGFIFDRNTMGWYRQAPGKERELVAAISRSGGSTYYADSVKGRFTISRDNAKNTVYLLMNSLKPEDSAVYYCAALYYYRNRSYDYWGQGTQVTVSS | high polyreactivity
QVQLVESGGGLVQAGGSLRLSCAASGFIFDTYVRGWYRQAPGKERELVAAISRTGGRTYYADSVKGRFTISRDNAKNTLYLQMNSLKPEDTAVYYCAARQSTQSGSYRRYNYWGQGTQVTVSS | high polyreactivity
QVQLVESGGGLVQAGGSLRLSCAASGFIFDVYAMGWYRQAPGKERELVAAITSGDGTNYADSVKGRFTISRDNAKNTVYLQMNSLKPEDTAVYYCAADDGVTYRGIIFSYWGQGTQVTVSS | low polyreactivity
QVQLVESGGGLVQAGGSLRLSCAASGFIFDWNTMGWYRQAPGKERELVAAITESSGSTYYADSVKGRFTISRDNAKNTVYLQMNSLKPEDTAVYDCAADFSYVYYLYDYWGQGTQVTVSS | low polyreactivity
QVQLVESGGGLVQAGGSLRLSCAASGFIFDWNTMGWYRQAPGKERELVAAITESSGSTYYADSVKGRFTISRDNAKNTVYLQMNSLKPEDTAVYYCAADLDVYVSIGSRFHFDYWGQGTQVTVSS | low polyreactivity
QVQLVESGGGLVQAGGSLRLSCAASGFIFDWNTMGWYRQAPGQERELVAAITESSGSTYYADSVKGRFTISRDNAKNTVYLQMNSLKPEDTAVYYCAAESLISWRYDYWGQGTQVTVSS | low polyreactivity
QVQLVESGGGLVQAGGSLRLSCAASGFIFDWYTMGWYRQAPGKERELVAAITIGGSTDYADSVKGRFTISRDNAKNTVYLLMNSLKPEDTAVYYCNALWYLSGTWYDYWGQGTQVTVSS | low polyreactivity
QVQLVESGGGLVQAGGSLRLSCAASGFIFDYYAMGWYRQAPGKERELVAAITSRSGSTYYADSVKGRFTISRDNAKNTVYLQMNSLKPEDTAVYYCAAVYPDYSSARYDYWGQGTQVTVSS | high polyreactivity

Sequence | polyreactivity (PSR sort gate)
QVQLVESGGGLVQAGGSLRLSCAASGFIFEDYAMGWYTQATGKERELVAAITWRGGRTYYADSVKGRFTISRDNAKNTVYLQMNSLKPEDTAVYYCRPQVYSYASRYGYWGQGTQVTVLS | low polyreactivity
QVQLVESGGGLVQAGGSLRLSCAASGFIFEGYAMGWYRQAPGKERELVAAISRGGGSTYYADSVKGRFTISRDNAKNTVYLQMNSLKPEDTAVYSCATGGYYHYTGVKMYYWGQGTQVTVSS | high polyreactivity
QVQLVESGGGLVQAGGSLRLSCAASGFIFEKYTMGWYRQAPGKERELVAAITWNGGSTYYADSVKGRFTISRDNAKNTVYLQMNSLKPEDTAVYYCAARVGWNKRRYDYWGQGTQVNVSS | low polyreactivity
QVQLVESGGGLVQAGGSLRLSCAASGFIFETYVMGWYRQAPGKVRALVAAISGGGSTYYADSVKGRFTMSRDNAKNTVYLQMNSLKPEDTAVYYCAAGSWRARSYYHYYYWGQGTQVTVSS | high polyreactivity
QVQLVESGGGLVQAGGSLRLSCAASGFIFEWNGMGWYRQAPGKERELVAAITWSGGSTYYADSVKGRFTISRDNAKYTVYLHMNSLKPEDTAVYYCAADFPEYYLPYDYWGQGTQVTVSS | low polyreactivity
QVQLVESGGGLVQAGGSLRLSCAASGFIFEWYAMGWYRQAPGKERELVAGIDSGSTYADSVKGRFTISRDNAKNTVYLQMNSLKPEDTAVYYCAKRSDAVIQRTYRYDYWGQGTQVTVSS | low polyreactivity
QVQLVESGGGLVQAGGSLRLSCAASGFIFEYYAMGWYRQAPGKERELVAAINGGGGNTYYADSVKGRFTISRDNAKNTVYLQMNSLKPEDTAVYYCNAKRRKYRYDYWGQGTEVTVSS | high polyreactivity
QVQLVESGGGLVQAGGSLRLSCAASGFIFEYYAMGWYRQAPGKERELVAAISSSGGSTYYADSVKGRFTISRDNAKNTVYLQMNSLKPEDTAVYYCAKDYAPSATKLHYWGQGTQVTVSS | low polyreactivity
QVQLVESGGGLVQAGGSLRLSCAASGFIFFKYAMGWYRQAPGKERELVAGITSGGSTYYADSVKGRFTISRDNAKNTVYLQMNSLKPEDTAVYYCAAYVKRESAPYGYWGQGTQVTVSS | low polyreactivity
QVQLVESGGGLVQAGGSLRLSCAASGFIFFLNAMGWYRQAPGKERELVAAISSSGGRTYYADSVKGRFTISRDNAKNTVYLQMNSLKPEDTAVYYCNAVTLYRSRTDGYWGQGTQVTVSS | high polyreactivity
QVQLVESGGGLVQAGGSLRLSCAASGFIFFQNAMGWYRQAQGKERELVAAISRRGGSTYYADSVKGRFTISRDNAKNTVYLQMNSLKPEDTAVYYCAARSRGDLASLYTGDYWGQGTQVTVSS | low polyreactivity
QVQLVESGGGLVQAGGSLRLSCAASGFIFFRYDMAWYRQAPGKERELVAVITSSGSTNYADSVKGRFTISRDNAKNTVYLQMNSLKPEDTAVYYCNARGYWTWYRGYRMDYWGQGTQVTVSS | high polyreactivity
QVQLVESGGGLVQAGGSLRLSCAASGFIFFSYAMGWYRQAPGKEREFVASISGRTGSTYYADSVKGRFTISRDNAKNTVYLQMNSLKPEDTAVYYCNARIVHSFRYDYWGQGTQVNVSS | low polyreactivity
QVQLVESGGGLVQAGGSLRLSCAASGFIFFVNAMGWSRQAPGKEREFVATITGSGGSTYYADSVKGRFTISRDNAKNTVYLQMNSLKPEDTAVYYCAADSLTPKSASDYWGQGTQVTVSS | low polyreactivity
QVQLVESGGGLVQAGGSLRLSCAASGFIFFVNAMGWYRQAPGKEREFVATITGSGGSKYYADSVKGRFTISRDIAKNTVYLQMISLKPEDTAVYYCNAETYIVLRGKFPVEYDYWGQGTQVTVSS | low polyreactivity
QVQLVESGGGLVQAGGSLRLSCAASGFIFFYYAMGWYRQAPGKERELVAAITKNGGRTYYADSVKGRFTISRDNAKNTVYLQMNSLKPEDTAVYYCNKVKGQGGYYGYDYWGQGTQVTVSS | high polyreactivity
QVQLVESGGGLVQAGGSLRLSCAASGFIFGDYAMGWYRQAPGKERELVAAINRGASTYYADSVKGSFTISRDNPKNTVYLQMNSLTPEDTAVYYCAAAGNSRGGRGGYWGQGTQVSVSS | high polyreactivity
QVQLVESGGGLVQAGGSLRLSCAASGFIFGDYAMGWYRQAPGKERELVAAISRSGGRTYYADSVKGRFTISRDNAKNTVYLQMNSLKPEDTAVYDCAKSCLNIYDYWGQVTQVTVSS | high polyreactivity
QVQLVESGGGLVQAGGSLRLSCAASGFIFGDYAMGWYRQAPGKERELVAAITWSGGRTYYADSVKGRFTISRDNAKNTVYLQMNSLKPEDTAVYYCSAVWYTSRQKYDYWGQGTQVTVSS | low polyreactivity
QVQLVESGGGLVQAGGSLRLSCAASGFIFGFNAMGWYRQAPGKERELVAVFNRSGSRTYYADSVKGRFTISRDNAKNTVYLQMNSLKPEDTAVYYCNAYPRYQYWGQGTLVTVSS | high polyreactivity
QVQLVESGGGLVQAGGSLRLSCAASGFIFGGNAMGWYRPAPGKERELVAAISRRGGNTYYADSVKGRFTISRDNAKITVYLQMNSLKPEDTAVYYCATGTSYWYLWAYDYWGQGTQVTVSS | high polyreactivity
